Data on 21 sequences can be found in a protein production outcome set (Wang et al. 2014).

The series in a line: label from the status in PepcDB records.
On to “MINLWKNGYDMVYGIRNRTTESWLKRVLTQAYYRILNLSSPIDIPESAGDFRLLDAKVVEAIKQLPEKNRYMKGLYAWVGFKSIGINFSEQERQHGHSSFNLKSLFNLAMSGLTGFSDLPLRVCIYLGAILALGAMSYGVWIIIKTLIEGISIPGWATLAAGMTLLGGIQLLFIGILGEYIGRIYAEVKNRPKYIISTEHSRTKQEHSIAHQENTFSSF”, for which the protein production entry is reported as “failed”. Next, “METTDHSTPQCGSASAGGQKTVGKDDYLLIEAVNKGDADRVQQLLEQGADANVCEESGGWTPLHNAVQSGRVDIVNLLLRYGADPHRRKKNGATPFIVAGICGDVSLLQIFLSRGANINERDMYGFTAFMEAAEYGNVEALKFLFAEGADVNLRRETTEDRRRLKQGGATALMSAAENGHPEVVRILLDEMKAEADARDNMGRNALIRSLLNRDCENVEIHVEEITSVLIQYGADINVRGEGEKTPLISAVKRKHTGLVQMLLSQEGIKVNDRDSEGKTALQIAVELKLKEIVRLLLEKGADTKCGDLVWIAKRNYDHGLVKLLLSYEANHDTNPPAKDWLPHSARWGEALERLHSVSRPMTGKLKIFMNDDYKIASTSEGGIYLGIYDNREVAVKVFCENSSRGRKEVSCLRDCGDHSNLLTFYGSEEHKGSLYVCVSLCESTLEKFLNVPREEPMEKGEDKFALSVLLSIFKGVQKLHMHGYSHQNLQPPNILIDSEKAVRLADFDESIQWMRESQTVQRDLEDLGRLVLYVVNKGEIPFETLKGQNDEELLTIAPNEETKDLVHCLFSPGENVKNCLMDLLGHPFFWTWENRYRTLRDVGNESDIKVRNNKSKLLKLLQPQTHAPSRSFDRWTSKIDKRVMSDMNGFYKSRKGYRDTVGDLLKFIRNIGEHINEEKNRQMKEILGDPSRYFQETFPDLVIYIYKKLKETEFRKHFPQPPPSLSVPEAAGPGGVQS”: “failed”.

Consider “MFEQIIAILFPVMSLVLIGYLIGLWLKPDFRPINRINMEAFVPALVFSSLVNMPLDTQQTPLLLAALVAVLLPGILMLLICRLGRWSFKTWAPLHMFRNSGNLAIPLFTYAFGETALPSAVLLFVVSMCLHISLGVAMLSKGSVLKTVLSAPVFLASSLALLLNLSGVSIWSPLYNATALLGQAAVPVMLLSLGSQMINLRLAGLKVGLVSTAQSLLTGACAFTVIYFFIPLPPLQLQMMVLFTMLPPAVMNYLFAERYHIEPTQVAAMVLFGNFFSLLSLPILLFIALSL”, for which the protein production entry is on record as “failed”. Next, “MRSTTSTLMLIKKTAIAVSLAVGSMVISGCDTNEVAKEISQPTIRPALTEIVSPSANAQLRFNGVVRSAQRADLAFRMSSRVISVLVDEGQQVKKGQLLAQLDPRDAQTALESARVEYKNSKAEYTRGKAIYEKSQAIAKSDLDTLTTRYQLAKNRLDEAQRQLEYTQLHAPFDGVIGKKMIDNHVQIQANSPVLTVHNVDDLEVLINIPDSVMLGDLKGSKALAQISALRNETFPLVLSTYGTQADPITQTYPVVLTFEDLRGFNVLPGMTVKVVPVYSDEQDQASLLITVPLTAVVPDNQGGQFVWVVTQENKVQKRIISAGTLVSNRIVINDGLQTGERIITAGASSLKEGMEVRPYTDTLSSQVEK”: “failed”. Turning to “MRTKILLLTFTLLSSFSVLSQGNDLEQGMYELNRGEFKAAIEQFRPLVNEGYAPAQYQMALVYLHGYSVRKDSMKALELFELSAAQNYPDAQFELALIYSDGKLVKQNLKKAFELTHKAANKDLPSAQFNLAVMYANGTGIKQDDFKASRWYQRAANQNYALAQFNLALLYSEGKGVEKSTELSYVWNTIASWNGYPNAEKSRLMDERDLSKLKIEKSIEKANDIYQKIRDQQEMKAKMAEKQNFY”, the protein production entry is on record as “failed”. As for “MERLNSKLFVENCYIMKENERLRKKAELLNQENQQLLFQLKQKLSKTKNSNNGSNNDNKSSSASGQS”, the entry is “failed”. As for “GSLQDNSSYPDEPWRITEEQREYYVNQFRSLQPDPSSFISGSVAKNFFTKSKLSIPELSYIWELSDADCDGALTLPEFCAAFHLIVARKNGYPLPEGLPPTLQPEFIVTD”, the entry is “not failed”. Consider “MTSRPSSDQTWQPIDGRVALIAPASAIATDVLEATLRQLEVHGVDYHLGRHVEARYRYLAGTVEQRLEDLHNAFDMPDITAVWCLRGGYGCGQLLPGLDWGRLQAASPRPLIGFSDISVLLSAFHRHGLPAIHGPVATGLGLSPLSAPREQQERLASLASVSRLLAGIDHELPVQHLGGHKQRVEGALIGGNLTALACMAGTLGGLHAPAGSILVLEDVGEPYYRLERSLWQLLESIDARQLGAICLGSFTDCPRKEVAHSLERIFGEYAAAIEVPLYHHLPSGHGAQNRAWPYGKTAVLEGNRLRW”, for which the protein production entry is “not failed”. “MKNIFLTMSLGIGLLFPCKLHAQSQYPFQNTTLSTEERVDDLIKRMTLEEKIDLLSGYNDFYLHPCERLGIPAFKLADGPLGVASWGLFGRATAFPSALSLAASWNKNLAEKTGAMYAQEWRARGIHFLLAPGVNNYRASKGARNFEYFGEDPYLASEMVVPFIKAVQDGGVIATIKHFAANDQEFDRYTVSTEVSERALQEIYLPPFKAAVQKAGVKAVMTGYNLVNGVYCTENKHLIDILKKDWGFKGMLMSDWACTYSAENAANYGLDLEMGSNDWFTRKELLPLVKEGKVTEEVINDKVRRIYGACISMGFFDRPQQDTDIPTFNPQANQMALNTACEGIILLKNEQNTLPIHRPKVIAVIGPTANPAIVSDRIYNVNSIVYGGGGSSKVHPWYVVSALEGIRQEFPEATVLYTEGISNQFKPRLFRNSKFRTKEGKPGLEANYYALSSDTSATLSDKMIQQQAVAAGRTVSVNQSADRTIETDKEESGLILRRTDRTVNYEWWGYPFNESKLGNDYRVCWEGYVDVEKTDSIRFFVDAQGAYRLWIDGTLALDASQSQSFDVRNTAISAKKGDAKHIRLEFCNQRSTPAEIRMGYAYQSDIDFSEAKRLAAKADLVVFCAGLDGSIELEGRDRPFDLPYGQDMLIQELVKVNPKLIVAIHAGGGINMTRWIDQVPAVVHALYPGQEGGHALAHILSGKVNPSAKLPFTIEKRWEDSPACGHYDETRKEKKVYYTEGIFTGYRGYDQKGIEPLFPFGFGLSYTTFDYSGLNIRMTDKKQKQLVVSFTVTNTGQRDGYEVAQLYVRDMQSKEPRPLKELKGFDKVYLKAGESKQIEIGLSEDAFQYFNAKQNRWVFEKGEFEILVGASSKDIRLAEKIKM”: the protein production result was “failed”. As for “INKIENYEQSTSQLREEINALYNQVIEVGQALSKQRRIVARELRDHIVSEIQNLQMKDANLEISFKKLEEPNIDGIEFVEFLISPNKGEPLKSLNKIASGGELSRIMLALKSIFVKSRGQTAILFDEVDSGVSGQAAQKMAEKMRDIAEYIQVICISHLPQVASMSDHHLLI”, the entry is “failed”; as for “MYKATVIIKLKKGVLNPEGRTIQRALNFLGFNNVKEVQTYKMIDIIMEGENEEKVKEEVEEMCKKLLANPVIHDYEIKVEKIE”, “not failed”; as for “MFIERMTNLAQGLVVAAVHAGSIAEEMEIECGDQILAIDGQEIGDIIDFQYLTAEDEFTLLLEKAGGELWELEIERSYGEELGLEVQAVSSHGLKLCRNNCIFCFVAQMPPGMRASLYDKDDDYRLSLTQGSFITLSNLDEDEFERILKFHFSPLYISVHAWDAEARVRLMKNPRAGDLSSQLKRLAGAGIQIHSQIVLVPGYNDGEVLEQTVRELGNLHPSVQSIAVVPVGLTKHRANLPDLRPFTPEEAWSILAKGEMWQKEYRRKTGRSLVYFSDEFYASAGRDYPSIEIYDDFAQLENGVGMASKFRQEFDYALQSLPPAIPQRKVHLITGVSAAPFFEDLLKKLTPIEGLTVQRHTIINSFFGPTVTVAGLLTAQDIAGQIGNIKGEIFLIPRVMLKADEEVFLDDRSVEWLAEELQGIPLVVENQGRAFLEAVTGLDLEGEDCE”, “failed”.

In the case of “MALSADIVGMHYRYPDHYEVEREKIREYAVAVQNDDAWYFEEDGAAELGYKGLLAPLTFICVFGYKAQAAFFKHANIATAEAQIVQVDQVLKFEKPIVAGDKLYCDVYVDSVREAHGTQIIVTKNIVTNEEGDLVQETYTTLAGRAGLEHHHHHH”, the protein production result is listed as “not failed”. As for “MKFEAIAVEKIPLIHEGDNLPSIICEKIGLQDRDIMIIASTIVAKAEGEIFRLEDITPGEEALEIAARTGKDPRFIQAVLSKSREVFVETPFMLVTTLAGHTCVNAGIDESNIENGFLLYPPENPDASALKIGKELEKLSGKKLSIIITDTNGRAFKIGQTGVAIGIYNIKPVKRWIGEKDLFGKVLEITEQAIADELAGAANLLMGEGAGGIPVVIIRGLDYYCEGDTSIKESYRPENMDVIKQGLRCLRNKK”, the entry is “failed”; as for “MLDAILSNYLYYPSILAFLFGVLMGAKYRHKIGNIFGYLILTVVIAYFLKAFPYYDLLPLSCSYLSAVIGIIIGNRLFGGKMI”, “failed”; as for “MSLTPRNATVAVIGAGDYIGAEIAKKFAAEGFTVFAGRRNGEKLAPLVAEIEAAGGRIVARSLDARNEDEVTAFLNAADAHAPLEVTIFNVGANVNFPILETTDRVFRKVWEMACWAGFVSGRESARLMLAHGQGKIFFTGATASLRGGSGFAAFASAKFGLRAVAQSMARELMPKNIHVAHLIIDSGVDTAWVRERREQMFGKDALANPDLLMPPAAVAGAYWQLYQQPKSAWTFEMEIRPYGEGHHHHHH”, “not failed”.

Consider “MGFLEAYKSFWRNYVNFSGRAPRSAYWYVVLWNVIIFVILYALAFIFGISAIMEAAMGGTGMAGGGGAIVLVIILWLYLLAALLPTISLMVRRLHDSGKSGFFVLLSLIPFAGGIIMLIFMCLESDGPNQYGDGDIDSKFDF”, for which the protein production result was “failed”. For the sequence “IKNFLYAWCGKRKMTPAYEIRAVGNKNRQKFMCEVRVEGFNYAGMGNSTNKKDAQSNAARDFVNYLVRINEVKSEEVPAVGIVPPP”, the protein production entry is reported as “not failed”. Next, “MSSATASIKLSNGVEMPVIGLGTWQSSPAEVITAVKTAVKAGYRLIDTASVYQNEEAIGTAIKELLEEGVVKREELFITTKAWTHELAPGKLEGGLRESLKKLQLEYVDLYLAHMPAAFNDDMSEHIASPVEDVWRQFDAVYKAGLAKAVGVSNWNNDQISRALALGLTPVHNSQVELHLYFPQHDHVDFCKKHNISVTSYATLGSPGRVNFTLPTGQKLDWAPAPSDLQDQNVLALAEKTHKTPAQVLLRYALDRGCAILPKSIQENRIKENFEVFDFSLTEEDIAKLEESKNSQRLFLQDFMTGHPEDAFAAERK”: “not failed”; “MKRSASLKEDVFLKSKVHFWTLEVLMVVAIIFICTKISFLFQPIGIFISTLFFPILIALFLYFIFNPVLVFLEEKKVPRNLAILLLYLFIITLTAVGVGVVVPTISQQLMDLVKNMPGYIKEGKLYIQDLSHHRLFEWLSTQNYVSIETIEKNAIEYLKDIPNTITSSATALFGIITNVALVIFTVPFILFYMFKDGHAFPGKAVSLLPESYREEGLRIIKETNETLSAYIQGQALVCIFVGAFTFIGYLIIDLPYAFVLGIIAAFTNIIPNLGPFIGAAPAVIVGLFVSPMQALYVIIIVTIVQQFESNIISPRIMSSKLNIHPLTIIILILGVGNFAGIIGMILAVPVYAVTKTVVSNLVRLFKTKRSNRK”: “failed”; “MRHDDARGRPGTRIAWRATFAAKRGEALRADHLRYRPQAGSPGALHCFVLDCSASMLTAERLARAKGLVVALFDSLARERADAALVCFGGNSAGVRFGPAVPRWWNERWLAPVGAGGGTPLARGIGAATRLLARAARRRPRQQRWLWLLSDGRTTEAPARPAFADRIVIVDFDDAAVRLGRCERLAHAWGAALVTPQALERGGG”: “failed”.
